Data reported in IntAct's records for PubMed 19033468.

B1: Protein kinase MCK1 (Saccharomyces cerevisiae), P21965 (parent)
chain: MSTEEQNGVPLQRGSEFIADDVTSNKSNNTRRMLVKEYRKIGRGAFGTVVQAYLTQDKKNWLGPFAIKKVPAHTEYKSRELQILRIADHPNIVKLQYFFTHLSPQDNKVYQHLAMECLPETLQIEINRYVTNKLEMPLKHIRLYTYQIARGMLYLHGLGVCHRDIKPSNVLVDPETGVLKICDFGSAKKLEHNQPSISYICSRFYRAPELIIGCTQYTTQIDIWGLGCVMGEMLIGKAIFQGQEPLLQLREIAKLLGPPDKRFIFFSNPAYDGPLFSKPLFSGSSQQRFEKYFGHSGPDGIDLLMKILVYEPQQRLSPRRILAHQFFNELRNDDTFLPRGFTEPIKLPNLFDFNDFELQILGEFADKIKPTKVAE
B2: E3 ubiquitin-protein ligase UBR1 (Saccharomyces cerevisiae), P19812 (parent)
chain: MSVADDDLGSLQGHIRRTLRSIHNLPYFRYTRGPTERADMSRALKEFIYRYLYFVISNSGENLPTLFNAHPKQKLSNPELTVFPDSLEDAVDIDKITSQQTIPFYKIDESRIGDVHKHTGRNCGRKFKIGEPLYRCHECGCDDTCVLCIHCFNPKDHVNHHVCTDICTEFTSGICDCGDEEAWNSPLHCKAEEQENDISEDPATNADIKEEDVWNDSVNIALVELVLAEVFDYFIDVFNQNIEPLPTIQKDITIKLREMTQQGKMYERAQFLNDLKYENDYMFDGTTTAKTSPSNSPEASPSLAKIDPENYTVIIYNDEYHNYSQATTALRQGVPDNVHIDLLTSRIDGEGRAMLKCSQDLSSVLGGFFAVQTNGLSATLTSWSEYLHQETCKYIILWITHCLNIPNSSFQTTFRNMMGKTLCSEYLNATECRDMTPVVEKYFSNKFDKNDPYRYIDLSILADGNQIPLGHHKILPESSTHSLSPLINDVETPTSRTYSNTRLQHILYFDNRYWKRLRKDIQNVIIPTLASSNLYKPIFCQQVVEIFNHITRSVAYMDREPQLTAIRECVVQLFTCPTNAKNIFENQSFLDIVWSIIDIFKEFCKVEGGVLIWQRVQKSNLTKSYSISFKQGLYTVETLLSKVHDPNIPLRPKEIISLLTLCKLFNGAWKIKRKEGEHVLHEDQNFISYLEYTTSIYSIIQTAEKVSEKSKDSIDSKLFLNAIRIISSFLGNRSLTYKLIYDSHEVIKFSVSHERVAFMNPLQTMLSFLIEKVSLKDAYEALEDCSDFLKISDFSLRSVVLCSQIDVGFWVRNGMSVLHQASYYKNNPELGSYSRDIHLNQLAILWERDDIPRIIYNILDRWELLDWFTGEVDYQHTVYEDKISFIIQQFIAFIYQILTERQYFKTFSSLKDRRMDQIKNSIIYNLYMKPLSYSKLLRSVPDYLTEDTTEFDEALEEVSVFVEPKGLADNGVFKLKASLYAKVDPLKLLNLENEFESSATIIKSHLAKDKDEIAKVVLIPQVSIKQLDKDALNLGAFTRNTVFAKVVYKLLQVCLDMEDSTFLNELLHLVHGIFRDDELINGKDSIPEAYLSKPICNLLLSIANAKSDVFSESIVRKADYLLEKMIMKKPNELFESLIASFGNQYVNDYKDKKLRQGVNLQETEKERKRRLAKKHQARLLAKFNNQQTKFMKEHESEFDEQDNDVDMVGEKVYESEDFTCALCQDSSSTDFFVIPAYHDHSPIFRPGNIFNPNEFMPMWDGFYNDDEKQAYIDDDVLEALKENGSCGSRKVFVSCNHHIHHNCFKRYVQKKRFSSNAFICPLCQTFSNCTLPLCQTSKANTGLSLDMFLESELSLDTLSRLFKPFTEENYRTINSIFSLMISQCQGFDKAVRKRANFSHKDVSLILSVHWANTISMLEIASRLEKPYSISFFRSREQKYKTLKNILVCIMLFTFVIGKPSMEFEPYPQQPDTVWNQNQLFQYIVRSALFSPVSLRQTVTEALTTFSRQFLRDFLQGLSDAEQVTKLYAKASKIGDVLKVSEQMLFALRTISDVRMEGLDSESIIYDLAYTFLLKSLLPTIRRCLVFIKVLHELVKDSENETLVINGHEVEEELEFEDTAEFVNKALKMITEKESLVDLLTTQESIVSHPYLENIPYEYCGIIKLIDLSKYLNTYVTQSKEIKLREERSQHMKNADNRLDFKICLTCGVKVHLRADRHEMTKHLNKNCFKPFGAFLMPNSSEVCLHLTQPPSNIFISAPYLNSHGEVGRNAMRRGDLTTLNLKRYEHLNRLWINNEIPGYISRVMGDEFRVTILSNGFLFAFNREPRPRRIPPTDEDDEDMEEGEDGFFTEGNDEMDVDDETGQAANLFGVGAEGIAGGGVRDFFQFFENFRNTLQPQGNGDDDAPQNPPPILQFLGPQFDGATIIRNTNPRNLDEDDSDDNDDSDEREIW
partner: B1 chain

Variants of: B1
Conditions: with ubr1_yeast UBR1, P19812

| Variant | effect of a mutation on the interaction |
| --- | --- |
| D164A | disrupting interaction |

Variants of: B2
Conditions: with mck1_yeast MCK1, P21965

| Variant | effect of a mutation on the interaction |
| --- | --- |
| Y277F | disrupting interaction |
